Test results published in publication PMC8664259.

Molecular target: T1, TAF7 (WT) (UniProt Q15545 1-349)
T1 sequence: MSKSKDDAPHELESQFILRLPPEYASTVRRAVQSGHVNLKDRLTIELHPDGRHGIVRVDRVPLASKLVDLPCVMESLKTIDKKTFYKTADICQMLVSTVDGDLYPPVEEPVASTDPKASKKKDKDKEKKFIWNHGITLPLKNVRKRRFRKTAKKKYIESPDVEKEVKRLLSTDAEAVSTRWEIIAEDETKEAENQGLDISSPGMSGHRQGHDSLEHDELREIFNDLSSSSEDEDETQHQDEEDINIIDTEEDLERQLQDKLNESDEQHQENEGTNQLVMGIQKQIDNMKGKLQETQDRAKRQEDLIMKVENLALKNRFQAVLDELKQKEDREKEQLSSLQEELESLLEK
Assay: EMSA

Binder: GGCAGAUCUGAGCCUGGGAGCUCUCUGCC (structured_RNA) [HIV-1 TAR RNA]
- binding result: binds

Binder: GGCAGAAAGGAGCAUUGGAGCUCUCUGCC (structured_RNA) [TARmut RNA]
- binding result: no binding
